Where a chain is given by its changes, count along the chain named.
B1: #23-57-137-1: mouse monoclonal antibody against human PTHrP (1-34) from hybridoma #23-57-137-1 (FERM BP-5631) (antibody, V domains shown)
VH: EVQLVESGGDLVKPGGSLKLSCAASGFTFSSYGMSWIRQTPDKRLEWVATISSGGSYTYYPDSVKGRFTISRDNAKNTLYLQMSSLKSEDTAMFYCARQTTMTYFAYWGQGTLVTVSA
VL: QLVLTQSSSASFSLGASAKLTCTLSSQHSTYTIEWYQQQPLKPPKYVMDLKQDGSHSTGDGIPDRFSGSSSGADRYLSISNIQPEDEAMYICGVGDTIKEQFVYVFGGGTKVTVLGQP
B2: antibody having both a humanized H-chain version “a” and a chimeric L-chain: antibody with humanized #23-57-137-1 H-chain version a and chimeric L-chain (antibody, V domains shown)
VH: QVQLVESGGGVVQPGRSLRLSCAASGFTFSSYGMSWVRQAPGKGLEWVATISSGGSYTYYPDSVKGRFTISRDNSKNTLYLQMNSLRAEDTAVYYCARQTTMTYFAYWGQGTLVTVSS
VL: B1 VL
B3: m/hMBC1La λ: hybrid antibody: humanized H-chain with mouse FR1,2/human FR3,4 hybrid L-chain (from version a) (antibody, V domains shown)
VH: B2 VH
VL: QLVLTQSSSASFSLGASAKLTCTLSSQHSTYTIEWYQQQPLKPPKYVMDLKQDGSHSTGDGIPDRFSGSSSGAERYLTISSLQSEDEADYYCGVGDTIKEQFVYVFGGGTKLTVL
B4: hmmMBC1L(λ): hybrid antibody: humanized H-chain with human FR1/mouse FR2,3,4 hybrid L-chain (antibody, V domains shown)
VH: B2 VH
VL: QLVLTQSPSASASLGASVKLTCTLSSQHSTYTIEWYQQQPLKPPKYVMDLKQDGSHSTGDGIPDRFSGSSSGADRYLSISNIQPEDEAMYICGVGDTIKEQFVYVFGGGTKVTVL
B5: m/hMBC1Ldλ: hybrid antibody: humanized H-chain with mouse FR1,2/human FR3,4 hybrid L-chain (from version d, 87 isoleucine) (antibody, V domains shown)
VH: B2 VH
VL: B3 VL with Y91I

Tests used:
PTHrP (1-34) [1] = molecular target: T1, PTHrP (1-34) (Homo sapiens, UniProt P12272); experiment: Hybridoma screening by solid phase RIA; format: binding; design: mixed with an equivalent amount of 4 ng/ml of PTHrP (1-34); host or cells: peptide added from outside to rat ROS17/2.8-5 cells; settings: hybridoma culture supernatant
Protocol: The screening of hybridomas was performed by determining the presence of PTHrP-recognition antibodies in the culture supernatant of the wells in which cell growth had been observed in HAT medium, by solid phase RIA method. The hybridomas were collected from the wells in which the binding ability to the PTHrP-recognition antibodies had been confirmed. The hybridomas thus obtained was suspended into RPMI-1640 medium containing 15% FCS supplemented with OPI-supplement (Sigma), followed by unification of the hybridomas by limiting dilution method.

PTHrP (1-34) [2] = molecular target: T1, PTHrP (1-34); experiment: ELISA, determination of antigen-binding ability; design: coating buffer supplemented with 1 μg/ml of human PTHrP (1-34) (Peptide Research Institute); purchased Peptide Research Institute; settings: antibodies expressed in COS-7 cells; H-chain humanized version a
Protocol: An ELISA plate for the determination of antigen-binding ability was prepared as follows. Each well of a 96-well ELISA plate was coated with 100 μl of a coating buffer supplemented with 1 μg/ml of human PTHrP (1-34) (Peptide Research Institute), and then blocked with 200 μl of a dilution buffer. Each well was added with each of the serial dilutions of the COS-7 cell culture supernatant in which each of the chimeric antibodies had been expressed, or added with each of the serial dilutions of each of the chimeric antibodies per se in a purified form. After the plate was incubated at room temperature and washed with PBS-Tween 20, each well of the plate was added with 100 μl of a solution of alkaline phosphatase-conjugated goat anti-human IgG antibodies (TAGO). After the plate was incubated at room temperature and washed with PBS-Tween 20, each well of the plate was added with 1 mg/ml of a substrate solution (“Sigma 104”, p-nitrophenylphosphoric acid, SIGMA). The solution was measured on its absorbance at 405 nm using Microplate Reader (Bio Rad).
An ELISA plate for determining antigen-binding ability was prepared as follows. Each well of a 96-well ELISA plate (Maxisorp, NUNC) was coated with 100 μl of a coating buffer containing 1 μg/ml of human PTHrP (1-34) and then blocked with 200 μl of a dilution buffer. Subsequently, each well was added with each of the serial dilutions of the COS-7 cell culture supernatant in which each of the hybrid antibodies and humanized antibodies was expressed, or added with each of the serial dilutions of each of the hybrid antibodies and humanized antibodies in a purified form. The plate was incubated at room temperature and washed with PBS-Tween 20. Subsequently, each well was added with 100 μl of alkaline phosphatase-conjugated goat anti-human IgG antibody (TAGO). The plate was incubated at room temperature and washed with PBS-Tween 20. Subsequently, each well was added with 1 mg/ml of a substrate solution (“Sigma 104”, p-nitrophenylphosphoric acid, SIGMA). The solution was measured on its absorbance at 405 nm using Microplate Reader (Bio Rad).

Row | Molecule | binding ability to PTHrP (1-34) (PTHrP (1-34) [1]) | antigen-binding (PTHrP-binding) activity compared with the chimeric #23-57-137-1 antibody (PTHrP (1-34) [2])
1 | B1 | high binding ability | –
2 | B2 | – | the same level of PTHrP-binding activity as that of a chimeric antibody
3 | B3 | – | the same level of antigen-binding activity as that of the chimeric #23-57-137-1 antibody
4 | B4 | – | the same level of antigen-binding activity as that of the chimeric #23-57-137-1 antibody
5 | B5 | – | the same level of antigen-binding activity as that of the chimeric #23-57-137-1 antibody
